Results published in publication PMC7094245.

Target: T1, IBV N protein amino-terminal region (region 1, NI) (Infectious bronchitis virus (strain …, UniProt P69598 1-133))
T1 sequence: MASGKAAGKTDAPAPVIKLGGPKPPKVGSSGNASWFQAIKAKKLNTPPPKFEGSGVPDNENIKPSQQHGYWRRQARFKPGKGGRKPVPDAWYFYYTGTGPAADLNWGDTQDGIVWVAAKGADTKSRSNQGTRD
Assay: SPR

B1: IBV leader RNA (contains TRS) (ssRNA)
RNA: ACUUAAGAUAGAUAUUAAUAUAUAUCUAUUACACUAGCCUUGCGCUAGAUUUUUAACUGAACAAUACAGACCUAAAAAGUCUGUUUGAUG
  Kd: 1.43 µM
